Test results reported in article PMC8826744.

Molecular target: recombinant furin, biotinylated (UniProt P09958)
Test: BLI

recombinant furin, biotinylated, sequence (P09958 27-794): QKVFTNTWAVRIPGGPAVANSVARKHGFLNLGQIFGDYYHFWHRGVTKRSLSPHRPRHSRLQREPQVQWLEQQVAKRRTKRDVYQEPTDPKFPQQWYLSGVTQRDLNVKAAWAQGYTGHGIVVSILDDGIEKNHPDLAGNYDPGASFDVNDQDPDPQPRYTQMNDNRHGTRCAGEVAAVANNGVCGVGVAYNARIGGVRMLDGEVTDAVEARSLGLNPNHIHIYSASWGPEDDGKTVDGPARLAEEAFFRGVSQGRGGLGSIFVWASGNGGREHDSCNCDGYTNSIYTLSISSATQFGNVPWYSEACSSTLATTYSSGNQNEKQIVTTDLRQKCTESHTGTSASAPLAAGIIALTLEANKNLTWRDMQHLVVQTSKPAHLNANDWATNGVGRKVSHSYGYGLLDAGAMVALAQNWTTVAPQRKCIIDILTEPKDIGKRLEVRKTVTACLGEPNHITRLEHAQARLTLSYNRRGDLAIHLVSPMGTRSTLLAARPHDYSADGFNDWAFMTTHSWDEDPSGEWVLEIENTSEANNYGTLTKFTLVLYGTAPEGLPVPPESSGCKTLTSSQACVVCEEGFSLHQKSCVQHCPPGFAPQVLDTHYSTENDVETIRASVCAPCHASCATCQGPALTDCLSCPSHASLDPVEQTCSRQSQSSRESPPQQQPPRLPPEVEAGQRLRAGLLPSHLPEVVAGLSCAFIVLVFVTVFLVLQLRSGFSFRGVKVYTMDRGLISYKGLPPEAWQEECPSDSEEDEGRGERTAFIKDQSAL

farletuzumab-FuG1 (antibody)
fold reduction of koff against farletuzumab-cFuG1: 10 fold
